In patent publication US20250129165A1 (IMCHECK THERAPEUTICS, published 2025):

Assays:
[1] = molecular target: T1, cynomolgus BTN3A as expressed on cynomolgus PBMCs (cynomolgus); experiment: flow cytometry on cynomolgus PBMCs
T1 construct: whole, on cells; also called Cyno PBMC

[2] = molecular target: human BTN3A1 antigen (Sino Biological cat. no. 15973-H08H) (human, UniProt O00481 30-254); experiment: SPR, Biacore T200 multi-cycle kinetics; antibody captured on Protein A, BTN3A1 as analyte
Chain of human BTN3A1 antigen (Sino Biological cat. no. 15973-H08H) (O00481 30-254 limits assumed): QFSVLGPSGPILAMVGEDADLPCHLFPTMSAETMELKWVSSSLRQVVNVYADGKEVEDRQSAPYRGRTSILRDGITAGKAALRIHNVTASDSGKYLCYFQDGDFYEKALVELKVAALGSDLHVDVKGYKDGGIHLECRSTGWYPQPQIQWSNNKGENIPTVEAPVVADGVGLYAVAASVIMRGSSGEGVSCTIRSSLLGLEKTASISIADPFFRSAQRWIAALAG

B1: mAb 3, humanized form of mAb 20.1 (antibody, human IgG1, kappa, V domains shown)
VH: QVQLVQSGAEVKKPGASVKVSCKASGYTFTRYYLYWVKQRPGQGLEWIGEINPNNGGTKFNEKFKSRATMTVDKSTRTTYMELSSLRSEDTAVYYCSREDDYDGTPDAMDYWGQGTLVTVSS
VL: DIQMTQSPSSLSASVGDRVTITCHASQNINLWLSWYQQKPGKAPKLLIYRASNLHTGVPSRFSGSGSATDFTFTISSLQPEDIATYYCQQGHSYPYTFGGGTKVDIKR
notes: also called 20.1 Humanized mAb 3; humanized mAb 20.1
EC50 [1]: 5.74 µg/mL | Kd [2]: 0.319 nM
